Measured values as given in patent publication US20230414780A1 (VECT HORUS, published 2023).
Numbering of substitutions follows the chain as printed.

B1: C5^h18 (VHH)
VHH: EVQLVESGGGVVQPGGSLKLSCVASGTDFSINFIRWYRQAPGKGLEFVAGFTATGNTNYADSVKGRFTISRDNAKNTLYLQMNSLRPEDTAVYYCYMLDKWGQGTQVTVSS
B2: C5^h19 (VHH)
VHH: B1 VHH with K19R, V23A, G44Q, L45R
B3: VHH A1 (C5^V1) (VHH)
VHH: B1 VHH with T27A, G44Q, L45R, V63M, A74T, T77A, L78V, M82I, N83D, R86K
B4: VHH A13 (C5^V13) (VHH)
VHH: B1 VHH with G44Q, L45R, T52S, V63M, A74T, T77A, L78V, M82I, N83D, R86K
B5: VHH B (B8) (VHH)
VHH: EVQLVESGGGVVQPGGSLRLSCAASGEIFSINFMRWYRQAPGKQREWVAGFTRDGSTNYPDSAKGRFTISRDNAKNTVYLQIDSLKPEDTAVYYCYMLDTWGQGTQVTVSS
B6: B8-MALAT1-ASO (VHH, not shown: small tags and cut ends)
VHH: B5 VHH
modifications: MALAT1 gapmer antisense oligonucleotide linked to the VHH
notes: also called VHH-MALAT1-ASO wherein VHH is B8
B7: B8^h1 (VHH)
VHH: B5 VHH with Q44G, R45L, A63V, I82M, D83N, K86R
B8: VHH B-siGFPst1 bioconjugate (VHH)
VHH: B5 VHH
modifications: siGFPst1 siRNA linked to the Gln of the C-terminal Q-tag
notes: not shown: C-terminal tag with His tag and Q-tag
B9: 13C3-HC-C5h9 (antibody)
heavy: QVQLQQSGPELVRPGVSVKISCKGSGYTFTDYAMHWVKQSHAKSLEWIGVISTKYGKTNYNQKFKGKATMTVDKSSSTAYMELARLTSEDSAIYYCARGDDGYSWGQGTSVTVSSAKTTPPSVYPLAPGSAAQTNSMVTLGCLVKGYFPEPVTVTWNSGSLSSGVHTFPAVLQSDLYTLSSSVTVPSSTWPSETVTCNVAHPASSTKVDKKIVPRDCGCKPCICTVPEVSSVFIFPPKPKDVLTITLTPKVTCVVVDISKDDPEVQFSWFVDDVEVHTAQTQPREEQFNSTFRSVSELPIMHQDWLNGKEFKCRVNSAAFPAPIEKTISKTKGRPKAPQVYTIPPPKEQMAKDKVSLTCMITDFFPEDITVEWQWNGQPAENYKNTQPIMDTDGSYFVYSKLNVQKSNWEAGNTFTCSVLHEGLHNHHTEKSLSHSPGGGGGMAEVQLVESGGGVVQPGGSLRLSCAASGTDFSINFIRWYRQAPGKGLEFVAGFTATGNTNYADSVKGRFTISRDNAKNTLYLQMNSLRPEDTAVYYCYMLDKWGQGTQVTVSSAAA
light: DVVMTQTPLSLPVSLGDQASISCRSGQSLVHSNGNTYLHWYLQKPGQSPKLLIYTVSNRFSGVPDRFSGSGSGSDFTLKISRVEAEDLGVYFCSQNTFVPWTFGGGTKLEIKRADAAPTVSIFPPSSEQLTSGGASVVCFLNNFYPKDINVKWKIDGSERQNGVLNSWTDQDSKDSTYSMSSTLTLTKDEYERHNSYTCEATHKTSTSPIVKSFNRNEC
B10: 13C3-HC-C5h20 (antibody)
heavy: B9 heavy with T521A, L522V
light: B9 light
notes: homodimeric fusion, bivalent for TfR
B11: 13C3-HC-C5h24 (antibody)
heavy: B9 heavy with V507M
light: B9 light

molecular target: T1, human TfR ectodomain fused to a mouse IgG1 Fc fragment (human, UniProt P02786 89-760); assay: SPR, at equilibrium
T1 construct: extracellular domain; ectodomain fused to the N-terminal end of the Fc, made in-house; not shown: mouse IgG1 Fc fragment
T1 sequence (P02786 89-760): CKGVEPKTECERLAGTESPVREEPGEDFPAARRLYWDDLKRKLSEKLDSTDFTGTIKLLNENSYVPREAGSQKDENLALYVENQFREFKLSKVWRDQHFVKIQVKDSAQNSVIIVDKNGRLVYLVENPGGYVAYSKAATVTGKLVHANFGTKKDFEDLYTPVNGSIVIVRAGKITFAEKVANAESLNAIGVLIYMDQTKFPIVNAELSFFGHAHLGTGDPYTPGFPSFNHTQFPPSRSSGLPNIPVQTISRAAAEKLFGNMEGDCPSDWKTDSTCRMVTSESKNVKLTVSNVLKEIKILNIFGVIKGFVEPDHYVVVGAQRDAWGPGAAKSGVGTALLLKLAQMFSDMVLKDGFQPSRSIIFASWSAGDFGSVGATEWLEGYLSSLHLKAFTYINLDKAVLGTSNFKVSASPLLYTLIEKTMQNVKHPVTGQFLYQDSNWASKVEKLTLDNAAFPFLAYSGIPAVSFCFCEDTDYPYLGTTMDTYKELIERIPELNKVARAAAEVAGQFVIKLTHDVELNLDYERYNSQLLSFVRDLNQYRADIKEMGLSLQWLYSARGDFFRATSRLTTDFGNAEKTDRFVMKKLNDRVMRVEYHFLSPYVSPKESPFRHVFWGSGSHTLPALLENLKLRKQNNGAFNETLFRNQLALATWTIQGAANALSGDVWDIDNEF
Procedure, shortened: (§1)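 TfR–mouse Fc fusions, produced in-house, captured on HC 1500M or CM5 chips either directly or via immobilized anti-mouse IgG. VHHs injected in single-cycle or multiple-cycle kinetic mode on Biacore T200.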

Binder	Kd
B1	27.3 nM
B2	13.2 nM

molecular target: T2, mouse TfR ectodomain fused to a mouse IgG1 Fc fragment (mouse, UniProt Q62351 89-763); assay: SPR, at equilibrium
T2 construct: extracellular domain; not shown: mouse IgG1 Fc fragment
T2 sequence (Q62351 89-763): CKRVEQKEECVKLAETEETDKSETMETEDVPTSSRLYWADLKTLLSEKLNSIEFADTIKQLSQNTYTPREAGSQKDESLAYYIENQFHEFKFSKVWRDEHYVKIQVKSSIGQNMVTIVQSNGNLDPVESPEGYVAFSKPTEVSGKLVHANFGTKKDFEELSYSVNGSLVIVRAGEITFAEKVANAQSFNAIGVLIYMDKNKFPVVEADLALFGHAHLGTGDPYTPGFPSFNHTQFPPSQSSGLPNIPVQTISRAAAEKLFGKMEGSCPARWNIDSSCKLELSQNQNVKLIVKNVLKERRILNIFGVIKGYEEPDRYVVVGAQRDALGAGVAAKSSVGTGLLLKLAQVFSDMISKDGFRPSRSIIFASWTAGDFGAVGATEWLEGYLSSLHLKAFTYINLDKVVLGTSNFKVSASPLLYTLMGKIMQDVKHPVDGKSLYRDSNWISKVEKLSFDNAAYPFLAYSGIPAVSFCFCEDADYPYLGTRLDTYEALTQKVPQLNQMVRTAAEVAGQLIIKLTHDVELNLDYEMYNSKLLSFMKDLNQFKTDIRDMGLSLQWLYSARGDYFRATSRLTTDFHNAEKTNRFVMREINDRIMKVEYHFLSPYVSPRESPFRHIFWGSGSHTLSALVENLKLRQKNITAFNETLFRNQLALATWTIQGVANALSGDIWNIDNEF
Procedure, shortened: as §1

Binder	Kd
B1	300 nM
B2	2750 nM
B3	228 nM
B4	113 nM
B5	37.5 nM

molecular target: T3, murine TfR expressed by murine neuroblastoma Neuro-2a cells (mouse, UniProt Q62351 1-763); assay: competition with C5-Alexa680 (100 nM) on living Neuro-2a cells, 3 hrs at 37 C, flow cytometry; Ki/app, mean ± SD
T3 construct: whole, on cells; also called mTfR (N2a cells)
T3 sequence (Q62351 whole entry): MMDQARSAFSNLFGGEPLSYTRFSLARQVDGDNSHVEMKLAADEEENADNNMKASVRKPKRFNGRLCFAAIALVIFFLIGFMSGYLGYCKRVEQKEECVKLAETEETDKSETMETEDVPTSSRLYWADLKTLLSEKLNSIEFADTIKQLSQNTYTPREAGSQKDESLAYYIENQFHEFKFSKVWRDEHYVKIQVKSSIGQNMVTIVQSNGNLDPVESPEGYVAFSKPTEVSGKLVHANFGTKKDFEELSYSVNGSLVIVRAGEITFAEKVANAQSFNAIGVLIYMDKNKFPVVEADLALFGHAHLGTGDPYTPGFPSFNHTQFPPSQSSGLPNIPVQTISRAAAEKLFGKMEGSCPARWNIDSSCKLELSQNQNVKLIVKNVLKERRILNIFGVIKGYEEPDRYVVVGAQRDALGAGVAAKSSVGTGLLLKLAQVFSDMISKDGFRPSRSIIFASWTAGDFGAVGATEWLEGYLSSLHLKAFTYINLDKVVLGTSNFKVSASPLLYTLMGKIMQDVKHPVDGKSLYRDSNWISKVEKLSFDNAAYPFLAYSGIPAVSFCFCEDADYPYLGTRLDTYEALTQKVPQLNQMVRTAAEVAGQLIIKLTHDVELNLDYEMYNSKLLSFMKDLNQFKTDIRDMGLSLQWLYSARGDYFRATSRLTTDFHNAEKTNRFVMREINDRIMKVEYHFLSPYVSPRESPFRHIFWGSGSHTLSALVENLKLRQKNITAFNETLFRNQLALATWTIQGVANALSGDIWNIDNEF
Protocol: (§2) The binding of VHH-Oligo and VHH-hFc-Oligo conjugates to mTfR was evaluated using a competition assay on living cells expressing the receptor of interest, namely murine neuroblastoma Neuro-2a cells (N2a). N2a cells were grown in Dulbecco's Modified Eagle Medium (DMEM) GlutaMAX supplemented with 10% v/v FBS in 5% CO₂ at 37° C. Cells were seeded two days before experiments in 96-well plates at a density of 50.000 cells/well. […] Resuspended cells were transferred in a 96-deepwell plate (V-bottom) containing 1% fetal bovine serum (FBS)/0.02% sodium azide in phosphate-buffered saline (PBS) and then centrifuged for 5 min at 2000 rpm at 4° C. After removing the supernatant, 5 mM EDTA in D-PBS and 4% paraformaldehyde (PFA) (v/v 1:1) were added into wells to fix cells for 15 min at room temperature. PFA was removed by centrifugation (5 min, 3000 rpm, 4° C.) and cells were resuspended with 5 mM EDTA in D-PBS. Then the cellular A680-associated fluorescence signal was quantified using an Attune™ NxT flow cytometer (Thermo Fisher Scientific) equipped with Attune™ NxT v3.1.2. Experimental data (experimental triplicates) were fitted with GraphPad Prism® software using a nonlinear fit to determine the apparent Ki inhibition constants.

Binder	Ki
B5	56.2 nM
B6	60.9 nM

molecular target: T3, murine TfR expressed by murine …; assay: competition with the fluorescent reference VHH on Neuro-2a cells as in FIG. 25; Ki/app on mTfR, free VHH
Protocol: as §2

Binder	Ki
B1	1480 nM
B2	7600 nM
B3	834 nM
B4	1320 nM
B5	56.2 nM
B7	43 nM

molecular target: T4, rhesus monkey TfR ectodomain fused to a mouse IgG1 Fc fragment (rhesus monkey, UniProt I0FKY7 89-760); assay: SPR, kinetic
T4 construct: extracellular domain; not shown: mouse IgG1 Fc fragment
Procedure, shortened: as §1

Binder	Kd	koff	kon
B5	0.0951 nM	9.54e-05 s⁻¹	1e+06 M⁻¹ s⁻¹

molecular target: T1, human TfR ectodomain fused to a mouse …; assay: SPR, kinetic
Procedure, shortened: as §1

Binder	Kd	koff	kon
B1	30.9 nM	0.013 s⁻¹	462000 M⁻¹ s⁻¹
B2	16.3 nM	0.00904 s⁻¹	624000 M⁻¹ s⁻¹
B3	0.876 nM	0.000487 s⁻¹	555000 M⁻¹ s⁻¹
B4	0.357 nM	0.000392 s⁻¹	1.14e+06 M⁻¹ s⁻¹
B5	0.0559 nM	3.06e-05 s⁻¹	677000 M⁻¹ s⁻¹
B7	0.212 nM	9.49e-05 s⁻¹	444000 M⁻¹ s⁻¹

molecular target: T2, mouse TfR ectodomain fused to a mouse …; assay: SPR, kinetic
Procedure, shortened: as §1

Binder	Kd	koff	kon
B1	336 nM	0.235 s⁻¹	816000 M⁻¹ s⁻¹
B2	643 nM	0.00825 s⁻¹	12800 M⁻¹ s⁻¹
B3	244 nM	0.12 s⁻¹	546000 M⁻¹ s⁻¹
B4	78.9 nM	0.0182 s⁻¹	231000 M⁻¹ s⁻¹
B5	27 nM	0.0243 s⁻¹	1.23e+06 M⁻¹ s⁻¹

molecular target: T5, human transferrin receptor (hTfR) fused to EGFP, on CHO cells (human, UniProt P02786 1-760); assay: flow cytometry on CHO-hTfR-EGFP cells, 1 hr at 4 C, anti-6His + Alexa647 anti-mouse; ratio to background fluorescence
T5 construct: whole, on cells; also called human TfR; CHO-hTfR-EGFP; not shown: EGFP from pEGFP-C1 vector, fused to the N-terminal (intracellular) end of hTfR
T5 sequence (P02786 whole entry, the tested form may be a part): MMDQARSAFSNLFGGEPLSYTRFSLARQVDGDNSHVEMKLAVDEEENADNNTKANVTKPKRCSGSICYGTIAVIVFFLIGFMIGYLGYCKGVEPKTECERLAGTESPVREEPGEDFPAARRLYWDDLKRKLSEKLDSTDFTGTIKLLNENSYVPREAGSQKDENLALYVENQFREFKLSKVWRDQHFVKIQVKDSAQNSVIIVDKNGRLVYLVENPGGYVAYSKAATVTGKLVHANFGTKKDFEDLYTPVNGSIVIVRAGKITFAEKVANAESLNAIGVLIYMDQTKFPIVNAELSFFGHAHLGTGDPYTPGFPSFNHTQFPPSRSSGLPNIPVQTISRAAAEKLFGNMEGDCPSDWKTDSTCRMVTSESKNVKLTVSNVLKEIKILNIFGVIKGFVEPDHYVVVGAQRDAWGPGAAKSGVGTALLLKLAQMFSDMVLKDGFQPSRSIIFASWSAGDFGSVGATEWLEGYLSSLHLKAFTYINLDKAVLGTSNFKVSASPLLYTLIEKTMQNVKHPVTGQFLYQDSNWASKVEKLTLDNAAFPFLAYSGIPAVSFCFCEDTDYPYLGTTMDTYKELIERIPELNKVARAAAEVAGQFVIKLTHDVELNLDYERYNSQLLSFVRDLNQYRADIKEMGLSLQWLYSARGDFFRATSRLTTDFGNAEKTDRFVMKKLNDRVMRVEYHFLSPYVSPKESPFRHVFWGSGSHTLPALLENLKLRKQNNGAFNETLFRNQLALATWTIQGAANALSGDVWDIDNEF
Protocol: FIGS. 15A-15H: In vitro gene silencing activity of VHH-siGFPst1 bioconjugates. […] CHO-hTfR-EGFP cells were incubated 1 hr at 4° C. with various concentrations of the indicated compounds. Detection of VHHs was performed using a primary mouse anti-6His (1/1000) and an Alexa647-conjugated anti-mouse secondary antibody (1/400). Measurements of cell-surface signal associated to VHH were performed using flow cytometry. The results are expressed as the ratio of Alexa647-associated fluorescence intensity of test compounds to that of background fluorescence. […] The total fluorescence associated to the EGFP protein was then quantified using flow cytometry and rationalized to that of untreated (control) cells (set at 100%) *** p≤0.001. […] The total fluorescence associated with the EGFP protein was then quantified using flow cytometry and rationalized to that of untreated (control) cells (set at 100%). […] CHO-hTfR-EGFP cells were incubated with the indicated compounds at 1 μM during 120 hrs at 37° C. Data were processed and analyzed as described in (B). *** p≤0.001 vs. untreated cells. […] The total fluorescence associated with the EGFP protein was then quantified using flow cytometry and rationalized to that of untreated (control) cells (set at 100%).

Binder	EC50 (read off the curve)
B5	~4 nM
B8	~3 nM

molecular target: T6, mouse transferrin receptor (mTfR) fused to EGFP, on CHO cells (mouse, UniProt Q62351 1-763); assay: cell-based flow cytometry assay on mTfR-expressing cells (as in Example XI)
T6 construct: whole, on cells; also called mouse TfR; CHO-mTfR-EGFP; not shown: EGFP
T6 sequence (Q62351 whole entry, the tested form may be a part): as the sequence (Q62351 whole entry) above

Binder	Bmax
B9	531 RFI
B10	1470 RFI
B11	781 RFI

molecular target: T6, mouse transferrin receptor (mTfR) fused …; assay: apparent Kd, flow cytometry, CHO cells
Procedure, shortened: (§3)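 CHO cells expressing TfR-EGFP fusions, blocked in PBS/BSA 2%, then incubated with increasing VHH concentrations for 1 hr at 4° C. Bound VHH detected via anti-6His antibody and Alexa647 secondary, cells PFA-fixed, read by flow cytometry. Apparent Kd from nonlinear fit.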

Binder	Kd
B1	834 nM
B2	1030 nM
B3	259 nM
B4	187 nM
B5	7.5 nM
B7	2.8 nM

molecular target: T7, rhesus monkey transferrin receptor (rhTfR) fused to EGFP, on CHO cells (rhesus monkey); assay: apparent Kd, flow cytometry, CHO cells
T7 construct: whole, on cells; also called rhesus monkey TfR
Procedure, shortened: as §3

Binder	Kd
B1	957 nM
B2	521 nM
B3	13 nM
B4	28 nM
B5	2.2 nM
B7	1.9 nM

molecular target: T5, human transferrin receptor (hTfR) fused …; assay: apparent Kd, flow cytometry, CHO cells
Procedure, shortened: as §3

Binder	Kd
B1	11 nM
B2	5.4 nM
B3	3.2 nM
B4	3.5 nM
B5	1.7 nM
B7	4.1 nM

molecular target: T6, mouse transferrin receptor (mTfR) fused …; assay: cell-based flow cytometry assay on mTfR-expressing cells (as in Example XI); Kd/app

Binder	Kd
B9	15.8 nM
B10	22.3 nM
B11	20.2 nM
